{"source": "paper PMC11574045", "about": "“A cofactor-induced repressive type of transcription factor condensation can be induced by synthetic peptides to suppress tumorigenesis” (The EMBO Journal, 2024)", "molecules": {"B1": {"name": "TRPS1 (protein, UniProt Q9UHF7 1-1281, looked up)", "Zinc finger transcription …": "MVRKKNPPLRNVASEGEGQILEPIGTESKVSGKNKEFSADQMSENTDQSDAAELNHKEEHSLHVQDPSSSSKKDLKSAVLSEKAGFNYESPSKGGNFPSFPHDEVTDRNMLAFSSPAAGGVCEPLKSPQRAEADDPQDMACTPSGDSLETKEDQKMSPKATEETGQAQSGQANCQGLSPVSVASKNPQVPSDGGVRLNKSKTDLLVNDNPDPAPLSPELQDFKCNICGYGYYGNDPTDLIKHFRKYHLGLHNRTRQDAELDSKILALHNMVQFSHSKDFQKVNRSVFSGVLQDINSSRPVLLNGTYDVQVTSGGTFIGIGRKTPDCQGNTKYFRCKFCNFTYMGNSSTELEQHFLQTHPNKIKASLPSSEVAKPSEKNSNKSIPALQSSDSGDLGKWQDKITVKAGDDTPVGYSVPIKPLDSSRQNGTEATSYYWCKFCSFSCESSSSLKLLEHYGKQHGAVQSGGLNPELNDKLSRGSVINQNDLAKSSEGETMTKTDKSSSGAKKKDFSSKGAEDNMVTSYNCQFCDFRYSKSHGPDVIVVGPLLRHYQQLHNIHKCTIKHCPFCPRGLCSPEKHLGEITYPFACRKSNCSHCALLLLHLSPGAAGSSRVKHQCHQCSFTTPDVDVLLFHYESVHESQASDVKQEANHLQGSDGQQSVKESKEHSCTKCDFITQVEEEISRHYRRAHSCYKCRQCSFTAADTQSLLEHFNTVHCQEQDITTANGEEDGHAISTIKEEPKIDFRVYNLLTPDSKMGEPVSESVVKREKLEEKDGLKEKVWTESSSDDLRNVTWRGADILRGSPSYTQASLGLLTPVSGTQEQTKTLRDSPNVEAAHLARPIYGLAVETKGFLQGAPAGGEKSGALPQQYPASGENKSKDESQSLLRRRRGSGVFCANCLTTKTSLWRKNANGGYVCNACGLYQKLHSTPRPLNIIKQNNGEQIIRRRTRKRLNPEALQAEQLNKQQRGSNEEQVNGSPLERRSEDHLTESHQREIPLPSLSKYEAQGSLTKSHSAQQPVLVSQTLDIHKRMQPLHIQIKSPQESTGDPGNSSSVSEGKGSSERGSPIEKYMRPAKHPNYSPPGSPIEKYQYPLFGLPFVHNDFQSEADWLRFWSKYKLSVPGNPHYLSHVPGLPNPCQNYVPYPTFNLPPHFSAVGSDNDIPLDLAIKHSRPGPTANGASKEKTKAPPNVKNEGPLNVVKTEKVDRSTQDELSTKCVHCGIVFLDEVMYALHMSCHGDSGPFQCSICQHLCTDKYDFTTHIQRGLHRNNAQVEKNGKPKE"}, "B2": {"name": "TSC22D2 (protein, UniProt O75157 1-780, looked up)", "TSC22 domain family protein 2": "MSKMPAKKKSCFQITSVTTAQVATSITEDTESLDDPDESRTEDVSSEIFDVSRATDYGPEEVCERSSSEETLNNVGDAETPGTVSPNLLLDGQLAAAAAAPANGGGVVSARSVSGALASTLAAAATSAPAPGAPGGPQLAGSSAGPVTAAPSQPPTTCSSRFRVIKLDHGSGEPYRRGRWTCMEYYERDSDSSVLTRSGDCIRHSSTFDQTAERDSGLGATGGSVVVVVASMQGAHGPESGTDSSLTAVSQLPPSEKMSQPTPAQPQSFSVGQPQPPPPPVGGAVAQSSAPLPPFPGAATGPQPMMAAAQPSQPQGAGPGGQTLPPTNVTLAQPAMSLPPQPGPAVGAPAAQQPQQFAYPQPQIPPGHLLPVQPSGQSEYLQQHVAGLQPPSPAQPSSTGAAASPATAATLPVGTGQNASSVGAQLMGASSQPSEAMAPRTGPAQGGQVAPCQPTGVPPATVGGVVQPCLGPAGAGQPQSVPPPQMGGSGPLSAVPGGPHAVVPGVPNVPAAVPAPSVPSVSTTSVTMPNVPAPLAQSQQLSSHTPVSRSSSIIQHVGLPLAPGTHSAPTSLPQSDLSQFQTQTQPLVGQVDDTRRKSEPLPQPPLSLIAENKPVVKPPVADSLANPLQLTPMNSLATSVFSIAIPVDGDEDRNPSTAFYQAFHLNTLKESKSLWDSASGGGVVAIDNKIEQAMDLVKSHLMYAVREEVEVLKEQIKELVERNSLLERENALLKSLSSNDQLSQLPTQQANPGSTSQQQAVIAQPPQPTQPPQQPNVSSA"}, "B3": {"name": "TSG101 (protein, UniProt Q99816 2-390, looked up)", "Tumor susceptibility gene 101 …": "AVSESQLKKMVSKYKYRDLTVRETVNVITLYKDLKPVLDSYVFNDGSSRELMNLTGTIPVPYRGNTYNIPICLWLLDTYPYNPPICFVKPTSSMTIKTGKHVDANGKIYLPYLHEWKHPQSDLLGLIQVMIVVFGDEPPVFSRPISASYPPYQATGPPNTSYMPGMPGGISPYPSGYPPNPSGYPGCPYPPGGPYPATTSSQYPSQPPVTTVGPSRDGTISEDTIRASLISAVSDKLRWRMKEEMDRAQAELNALKRTEEDLKKGHQKLEEMVTRLDQEVAEVDKNIELLKKKDEELSSALEKMENQSENNDIDEVIIPTAPLYKQILNLYAEENAIEDTIFYLGEALRRGVIDLDVFLKHVRLLSRKQFQLRALMQKARKTAGLSDLY"}, "B4": {"name": "TULP2 (protein, UniProt O00295 1-520, looked up)", "Tubby-related protein 2": "MSQDNDTLMRDILGHELAAMRLQKLEQQRRLFEKKQRQKRQELLMVQANPDASPWLWRSCLREERLLGDRGLGNPFLRKKVSEAHLPSGIHSALGTVSCGGDGRGERGLPTPRTEAVFRNLGLQSPFLSWLPDNSDAELEEVSVENGSVSPPPFKQSPRIRRKGWQAHQRPGTRAEGESDSQDMGDAHKSPNMGPNPGMDGDCVYENLAFQKEEDLEKKREASESTGTNSSAAHNEELSKALKGEGGTDSDHMRHEASLAIRSPCPGLEEDMEAYVLRPALPGTMMQCYLTRDKHGVDKGLFPLYYLYLETSDSLQRFLLAGRKRRRSKTSNYLISLDPTHLSRDGDNFVGKVRSNVFSTKFTIFDNGVNPDREHLTRNTARIRQELGAVCYEPNVLGYLGPRKMTVILPGTNSQNQRINVQPLNEQESLLSRYQRGDKQGLLLLHNKTPSWDKENGVYTLNFHGRVTRASVKNFQIVDPKHQEHLVLQFGRVGPDTFTMDFCFPFSPLQAFSICLSSFN"}, "B5": {"name": "TSHZ2 (protein, UniProt Q9NRE2 1-1034, looked up)", "Teashirt homolog 2": "MPRRKQQAPKRAAGYAQEEQLKEEEEIKEEEEEEDSGSVAQLQGGNDTGTDEELETGPEQKGCFSYQNSPGSHLSNQDAENESLLSDASDQVSDIKSVCGRDASDKKAHTHVRLPNEAHNCMDKMTAVYANILSDSYWSGLGLGFKLSNSERRNCDTRNGSNKSDFDWHQDALSKSLQQNLPSRSVSKPSLFSSVQLYRQSSKMCGTVFTGASRFRCRQCSAAYDTLVELTVHMNETGHYQDDNRKKDKLRPTSYSKPRKRAFQDMDKEDAQKVLKCMFCGDSFDSLQDLSVHMIKTKHYQKVPLKEPVPTISSKMVTPAKKRVFDVNRPCSPDSTTGSFADSFSSQKNANLQLSSNNRYGYQNGASYTWQFEACKSQILKCMECGSSHDTLQQLTTHMMVTGHFLKVTSSASKKGKQLVLDPLAVEKMQSLSEAPNSDSLAPKPSSNSASDCTASTTELKKESKKERPEETSKDEKVVKSEDYEDPLQKPLDPTIKYQYLREEDLEDGSKGGGDILKSLENTVTTAINKAQNGAPSWSAYPSIHAAYQLSEGTKPPLPMGSQVLQIRPNLTNKLRPIAPKWKVMPLVSMPTHLAPYTQVKKESEDKDEAVKECGKESPHEEASSFSHSEGDSFRKSETPPEAKKTELGPLKEEEKLMKEGSEKEKPQPLEPTSALSNGCALANHAPALPCINPLSALQSVLNNHLGKATEPLRSPSCSSPSSSTISMFHKSNLNVMDKPVLSPASTRSASVSRRYLFENSDQPIDLTKSKSKKAESSQAQSCMSPPQKHALSDIADMVKVLPKATTPKPASSSRVPPMKLEMDVRRFEDVSSEVSTLHKRKGRQSNWNPQHLLILQAQFASSLFQTSEGKYLLSDLGPQERMQISKFTGLSMTTISHWLANVKYQLRKTGGTKFLKNMDKGHPIFYCSDCASQFRTPSTYISHLESHLGFQMKDMTRLSVDQQSKVEQEISRVSSAQRSPETIAAEEDTDSKFKCKLCCRTFVSKHAVKLHLSKTHSKSPEHHSQFVTDVDEE"}, "B6": {"name": "TSHZ1 (protein, UniProt Q6ZSZ6 1-1077, looked up)", "Teashirt homolog 1": "MPRRKQQAPRRSAAYVPEEELKAAEIDEEHVEDDGLSLDIQESEYMCNEETEIKEAQSYQNSPVSSATNQDAGYGSPFSESSDQLAHFKGSSSREEKEDPQCPDSVSYPQDSLAQIKAVYANLFSESCWSSLALDLKKSGSTTSTNDASQKESSAPTPTPPTCPVSTTGPTTSTPSTSCSSSTSHSSTTSTSSSSGYDWHQAALAKTLQQTSSYGLLPEPSLFSTVQLYRQNNKLYGSVFTGASKFRCKDCSAAYDTLVELTVHMNETGHYRDDNRDKDSEKTKRWSKPRKRSLMEMEGKEDAQKVLKCMYCGHSFESLQDLSVHMIKTKHYQKVPLKEPVPAITKLVPSTKKRALQDLAPPCSPEPAGMAAEVALSESAKDQKAANPYVTPNNRYGYQNGASYTWQFEARKAQILKCMECGSSHDTLQQLTAHMMVTGHFLKVTTSASKKGKQLVLDPVVEEKIQSIPLPPTTHTRLPASSIKKQPDSPAGSTTSEEKKEPEKEKPPVAGDAEKIKEESEDSLEKFEPSTLYPYLREEDLDDSPKGGLDILKSLENTVSTAISKAQNGAPSWGGYPSIHAAYQLPGTVKPLPAAVQSVQVQPSYAGGVKSLSSAEHNALLHSPGSLTPPPHKSNVSAMEELVEKVTGKVNIKKEERPPEKEKSSLAKAASPIAKENKDFPKTEEVSGKPQKKGPEAETGKAKKEGPLDVHTPNGTEPLKAKVTNGCNNLGIIMDHSPEPSFINPLSALQSIMNTHLGKVSKPVSPSLDPLAMLYKISNSMLDKPVYPATPVKQADAIDRYYYENSDQPIDLTKSKNKPLVSSVADSVASPLRESALMDISDMVKNLTGRLTPKSSTPSTVSEKSDADGSSFEEALDELSPVHKRKGRQSNWNPQHLLILQAQFASSLRETTEGKYIMSDLGPQERVHISKFTGLSMTTISHWLANVKYQLRRTGGTKFLKNLDTGHPVFFCNDCASQFRTASTYISHLETHLGFSLKDLSKLPLNQIQEQQNVSKVLTNKTLGPLGATEEDLGSTFQCKLCNRTFASKHAVKLHLSKTHGKSPEDHLIYVTELEKQ"}, "B7": {"name": "TWIST2 (protein, UniProt Q8WVJ9 1-160, looked up)", "Twist-related protein 2": "MEEGSSSPVSPVDSLGTSEEELERQPKRFGRKRRYSKKSSEDGSPTPGKRGKKGSPSAQSFEELQSQRILANVRERQRTQSLNEAFAALRKIIPTLPSDKLSKIQTLKLAARYIDFLYQVLQSDEMDNKMTSCSYVAHERLSYAFSVWRMEGAWSMSASH"}, "B8": {"name": "TWIST1 (protein, UniProt Q15672 1-202, looked up)", "Twist-related protein 1": "MMQDVSSSPVSPADDSLSNSEEEPDRQQPPSGKRGGRKRRSSRRSAGGGAGPGGAAGGGVGGGDEPGSPAQGKRGKKSAGCGGGGGAGGGGGSSSGGGSPQSYEELQTQRVMANVRERQRTQSLNEAFAALRKIIPTLPSDKLSKIQTLKLAARYIDFLYQVLQSDELDSKMASCSYVAHERLSYAFSVWRMEGAWSMSASH"}}, "data": [{"tested_on": "HEK293FT cells transfected with TF library", "assay": "Screening of TF condensates based on fluorescent puncta", "assay_type": "cell-based", "conditions": "Figure 1B numerical data; TF library screen, one value per transcriptional factor", "how_it_was_run": "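HEK293FT, PEI transfection of TF library, 60 h; ±glucose 12 h; 4% PFA fix, 0.05% Triton X-100 permeabilization, 5% BSA block; anti-Flag/anti-GAL4 overnight at 4 °C, Alexa 488 secondary 1 h; high-content imaging, 50 fields/well.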", "values": [{"molecule": "B1", "Z score of condensed fraction": -0.2124}, {"molecule": "B2", "Z score of condensed fraction": -1.109}, {"molecule": "B3", "Z score of condensed fraction": 0.9844}, {"molecule": "B4", "Z score of condensed fraction": -0.5004}, {"molecule": "B5", "Z score of condensed fraction": -1.212}, {"molecule": "B6", "Z score of condensed fraction": -1.076}, {"molecule": "B7", "Z score of condensed fraction": -0.4698}, {"molecule": "B8", "Z score of condensed fraction": -0.8032}]}]}
